The text below walks through data of article PMC7005732.

For experiment [1], the target named is Human non-translating 80S ribosome, puromycin-treated, purified from HeLa cells (human (endogenous in HeLa)) (UniProt P62750). Briefly: cryo-EM structure; in vivo pulled-out Ebp1-ribosome complex (dataset 1; merged with dataset 2 for the final map): 100 nM 80S ribosomes purified from HeLa cells without addition of recombinant Ebp1; occupancy estimated from computational particle sorting.

For experiment [2] the target is unchanged. Put plainly: cryo-EM structure; in vitro reconstituted complex (dataset 2; merged with dataset 1 for the final map): 100 nM purified HeLa 80S ribosomes with an eightfold excess of recombinant Ebp1, SEC buffer (20 mM HEPES KOH pH 7.5, 5 mM Mg(OAc)2, 175 mM KOAc, 1 mM TCEP); occupancy estimated from computational particle sorting.

With “Endogenous Ebp1 on 80S ribosomes purified from HeLa cells (from UniProt Q9UQ80 1-394) (natural protein)”, in experiment [1], the fraction of ribosomes decorated with Ebp1 is 25%.

Regarding “ErbB3 receptor-binding protein (Ebp1), full-length, p48 isoform, recombinant (from UniProt Q9UQ80 1-394) (natural protein)”, in experiment [2], the fraction of ribosomes decorated with Ebp1 was 75%.
